From patent US20120316071A1 (published 2012) come the findings set out here.

The target of test [1] is T1, Recombinant Human DLL4 (delta-like protein 4) (human, UniProt Q9NR61 27-524).
T1 construct: Bought recombinant human DLL4 (R&D Systems Cat#1506-D4/CF); also called rHuman DLL4
The test is described as follows: ELISA, DLL4-coated plate, 100 nM Fab. For orientation: ELISA stands for enzyme-linked immunosorbent assay.

Test [2] has as its target T1, Recombinant Human DLL4 (delta-like …). The test is described as follows: ECL (MSD) binding assay, immobilised DLL4, 10 nM Fab.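 Note: fab binding read as electrochemiluminescence via a TAG-labelled detection antibody, 1 h incubations at 20 °C, antigen signal compared with each well's blank, ratio of at least 4 scored as binder.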

B1: Fab VH5-51_IGHD5-18*01>3_IGHJ4*01 G100K/G104T & V3-4_IGLJ1*01 S96W (Fab, V domains shown)
VH: EVQLVQSGAEVKKPGESLKISCKGSGYSFTSYWIGWVRQMPGKGLEWMGIIYPGDSDTRYSPSFQGQVTISADKSISTAYLQWSSLKASDTAMYYCARRKYSYTYDYFDYWGQGTLVTVSS
VL: QTVVTQEPSFSVSPGGTVTLTCGLSSGSVSTSYYPSWYQQTPGQAPRTLIYSTNTRSSGVPDRFSGSILGNKAALTITGAQADDESDYYCVLYMGWGISYVFGTGTKVTVL
notes: Fab; expressed with CH1 (His and Flag tags) and lambda CL from the expression plasmids; also called H:KT & S96W
As for B1, in test [1], the “ELISA Signal [100 nM Fab]” value worked out at 0.02. In addition, in test [2], the “ECL Signal [10 nM Fab]” value is 52300.

B2: Fab VH5-51_IGHD5-18*01>3_IGHJ4*01 G100K/G104T & V3-4_IGLJ1*01 V91W (Fab, V domains shown)
VH: EVQLVQSGAEVKKPGESLKISCKGSGYSFTSYWIGWVRQMPGKGLEWMGIIYPGDSDTRYSPSFQGQVTISADKSISTAYLQWSSLKASDTAMYYCARRKYSYTYDYFDYWGQGTLVTVSS
VL: QTVVTQEPSFSVSPGGTVTLTCGLSSGSVSTSYYPSWYQQTPGQAPRTLIYSTNTRSSGVPDRFSGSILGNKAALTITGAQADDESDYYCWLYMGSGISYVFGTGTKVTVL
notes: Fab; expressed with CH1 (His and Flag tags) and lambda CL from the expression plasmids; also called H:KT & V91W
Take B2: the “ELISA Signal [100 nM Fab]” value in test [1] stood at 0. Further, the “ECL Signal [10 nM Fab]” value in test [2] stood at 12500.

B3: Fab VH5-51_IGHD5-18*01>3_IGHJ4*01 G100K/G104T & V3-4_IGLJ1*01 M94T (Fab, V domains shown)
VH: EVQLVQSGAEVKKPGESLKISCKGSGYSFTSYWIGWVRQMPGKGLEWMGIIYPGDSDTRYSPSFQGQVTISADKSISTAYLQWSSLKASDTAMYYCARRKYSYTYDYFDYWGQGTLVTVSS
VL: QTVVTQEPSFSVSPGGTVTLTCGLSSGSVSTSYYPSWYQQTPGQAPRTLIYSTNTRSSGVPDRFSGSILGNKAALTITGAQADDESDYYCVLYTGSGISYVFGTGTKVTVL
notes: Fab; expressed with CH1 (His and Flag tags) and lambda CL from the expression plasmids; also called H:KT & M94T
In the case of B3, the “ELISA Signal [100 nM Fab]” value in test [1] came to 0.02. For the same molecule, the “ECL Signal [10 nM Fab]” value in test [2] worked out at 43000.

B4: Fab VH5-51_IGHD5-18*01>3_IGHJ4*01 G100K/G104T & V3-4_IGLJ1*01 V91G (Fab, V domains shown)
VH: EVQLVQSGAEVKKPGESLKISCKGSGYSFTSYWIGWVRQMPGKGLEWMGIIYPGDSDTRYSPSFQGQVTISADKSISTAYLQWSSLKASDTAMYYCARRKYSYTYDYFDYWGQGTLVTVSS
VL: QTVVTQEPSFSVSPGGTVTLTCGLSSGSVSTSYYPSWYQQTPGQAPRTLIYSTNTRSSGVPDRFSGSILGNKAALTITGAQADDESDYYCGLYMGSGISYVFGTGTKVTVL
notes: Fab; expressed with CH1 (His and Flag tags) and lambda CL from the expression plasmids; also called H:KT & V91G
On to B4, for which the “ELISA Signal [100 nM Fab]” value in test [1] turned out to be 0.01. Further, the “ECL Signal [10 nM Fab]” value in test [2] came out at 45300.

B5: Fab VH5-51_IGHD5-18*01>3_IGHJ4*01 G100K/G104T & V3-4_IGLJ1*01 V91T (Fab, V domains shown)
VH: EVQLVQSGAEVKKPGESLKISCKGSGYSFTSYWIGWVRQMPGKGLEWMGIIYPGDSDTRYSPSFQGQVTISADKSISTAYLQWSSLKASDTAMYYCARRKYSYTYDYFDYWGQGTLVTVSS
VL: QTVVTQEPSFSVSPGGTVTLTCGLSSGSVSTSYYPSWYQQTPGQAPRTLIYSTNTRSSGVPDRFSGSILGNKAALTITGAQADDESDYYCTLYMGSGISYVFGTGTKVTVL
notes: Fab; expressed with CH1 (His and Flag tags) and lambda CL from the expression plasmids; also called H:KT & V91T
In the case of B5, the “ELISA Signal [100 nM Fab]” value in test [1] was 0.01. Besides, in test [2], the “ECL Signal [10 nM Fab]” value worked out at 32700.

B6: Fab VH5-51_IGHD5-18*01>3_IGHJ4*01 G100K/G104T & V3-4_IGLJ1*01 M94V (Fab, V domains shown)
VH: EVQLVQSGAEVKKPGESLKISCKGSGYSFTSYWIGWVRQMPGKGLEWMGIIYPGDSDTRYSPSFQGQVTISADKSISTAYLQWSSLKASDTAMYYCARRKYSYTYDYFDYWGQGTLVTVSS
VL: QTVVTQEPSFSVSPGGTVTLTCGLSSGSVSTSYYPSWYQQTPGQAPRTLIYSTNTRSSGVPDRFSGSILGNKAALTITGAQADDESDYYCVLYVGSGISYVFGTGTKVTVL
notes: Fab; expressed with CH1 (His and Flag tags) and lambda CL from the expression plasmids; also called H:KT & M94V
Turning to B6, the “ELISA Signal [100 nM Fab]” value in test [1] was determined as 0.02. Also, the “ECL Signal [10 nM Fab]” value in test [2] stood at 47300.

B7: Fab VH5-51_IGHD5-18*01>3_IGHJ4*01 G100K/G104T & V3-4_IGLJ1*01 S96G (Fab, V domains shown)
VH: EVQLVQSGAEVKKPGESLKISCKGSGYSFTSYWIGWVRQMPGKGLEWMGIIYPGDSDTRYSPSFQGQVTISADKSISTAYLQWSSLKASDTAMYYCARRKYSYTYDYFDYWGQGTLVTVSS
VL: QTVVTQEPSFSVSPGGTVTLTCGLSSGSVSTSYYPSWYQQTPGQAPRTLIYSTNTRSSGVPDRFSGSILGNKAALTITGAQADDESDYYCVLYMGGGISYVFGTGTKVTVL
notes: Fab; expressed with CH1 (His and Flag tags) and lambda CL from the expression plasmids; also called H:KT & S96G
With B7, in test [1], the “ELISA Signal [100 nM Fab]” value is 0.01. For the same molecule, the “ECL Signal [10 nM Fab]” value in test [2] stood at 40400.

B8: Fab VH5-51_IGHD5-18*01>3_IGHJ4*01 G100K/G104T & V3-4_IGLJ1*01 M94S (Fab, V domains shown)
VH: EVQLVQSGAEVKKPGESLKISCKGSGYSFTSYWIGWVRQMPGKGLEWMGIIYPGDSDTRYSPSFQGQVTISADKSISTAYLQWSSLKASDTAMYYCARRKYSYTYDYFDYWGQGTLVTVSS
VL: QTVVTQEPSFSVSPGGTVTLTCGLSSGSVSTSYYPSWYQQTPGQAPRTLIYSTNTRSSGVPDRFSGSILGNKAALTITGAQADDESDYYCVLYSGSGISYVFGTGTKVTVL
notes: Fab; expressed with CH1 (His and Flag tags) and lambda CL from the expression plasmids; also called H:KT & M94S
As to B8, the “ELISA Signal [100 nM Fab]” value in test [1] came to 0.02. Also, the “ECL Signal [10 nM Fab]” value in test [2] was 49600.

B9: Fab VH5-51_IGHD5-18*01>3_IGHJ4*01 G100K/G104T & V3-4_IGLJ1*01 V91R (Fab, V domains shown)
VH: EVQLVQSGAEVKKPGESLKISCKGSGYSFTSYWIGWVRQMPGKGLEWMGIIYPGDSDTRYSPSFQGQVTISADKSISTAYLQWSSLKASDTAMYYCARRKYSYTYDYFDYWGQGTLVTVSS
VL: QTVVTQEPSFSVSPGGTVTLTCGLSSGSVSTSYYPSWYQQTPGQAPRTLIYSTNTRSSGVPDRFSGSILGNKAALTITGAQADDESDYYCRLYMGSGISYVFGTGTKVTVL
notes: Fab; expressed with CH1 (His and Flag tags) and lambda CL from the expression plasmids; also called H:KT & V91R
As to B9, the “ELISA Signal [100 nM Fab]” value in test [1] amounted to 0. The “ECL Signal [10 nM Fab]” value in test [2] was 13400.
